Assays:
[1] = molecular target: v2.1 BE-VLP MMLV gag-ABE8e fusion protein (cleavable linker …)
[2] = molecular target: v2.4 BE-VLP MMLV gag-ABE8e fusion protein (cleavable linker […])
[3] = molecular target: v2.3 BE-VLP MMLV gag-ABE8e fusion protein (cleavable linker […])
[4] = molecular target: v2.2 BE-VLP MMLV gag-ABE8e fusion protein (cleavable linker VQALVLTQ)

B1: Moloney murine leukemia virus (MMLV) protease, supplied as wild-type MMLV gag-pro-pol polyprotein (protein)
chain: TLDDQGGQGQEPPPEPRITLKVGGQPVTFLVDTGAQHSVLTQNPGPLSDKSAWVQGATGGKRYRWTTDRKVHLATGKVTHSFLHVPDCPYPLLGRDLLTKLKAQIHFEGSGAQVMGPMGQPLQVL
fraction of cleaved ABE8e versus full-length gag-ABE8e present in purified eVLPs (western blot) [1]: the v2.4 linker is cleaved more efficiently than the v2.1 and v2.2 linkers, but less efficiently than the v2.3 linker
fraction of cleaved ABE8e versus full-length gag-ABE8e present in purified eVLPs (western blot) [2]: the v2.4 linker is cleaved more efficiently than the v2.1 and v2.2 linkers, but less efficiently than the v2.3 linker
fraction of cleaved ABE8e versus full-length gag-ABE8e present in purified eVLPs (western blot) [3]: the v2.4 linker is cleaved more efficiently than the v2.1 and v2.2 linkers, but less efficiently than the v2.3 linker
fraction of cleaved ABE8e versus full-length gag-ABE8e present in purified eVLPs (western blot) [4]: the v2.4 linker is cleaved more efficiently than the v2.1 and v2.2 linkers, but less efficiently than the v2.3 linker

From US20250382334
